Measured values reported in paper doi:10.1101/2025.10.13.682238.

Molecular target: GST tag (glutathione S-transferase affinity tag, free in the ATAD2B sample)
Assay: SEC; Superdex 200 Increase 10/300 GL on an ÄktaPrime system, ATAD2B sample from E. coli compared with a molecular weight standard mixture (thyroglobulin 670 kDa, ovalbumin 44 kDa)

Sequence of GST tag (glutathione S-transferase affinity tag, free in the ATAD2B sample) (P08515 2-218): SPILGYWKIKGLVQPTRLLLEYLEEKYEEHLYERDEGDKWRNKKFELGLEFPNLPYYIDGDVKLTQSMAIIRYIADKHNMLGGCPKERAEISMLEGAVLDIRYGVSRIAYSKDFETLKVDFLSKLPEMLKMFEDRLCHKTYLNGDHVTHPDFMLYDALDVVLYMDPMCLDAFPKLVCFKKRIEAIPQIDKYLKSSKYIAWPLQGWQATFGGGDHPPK

Substance: GST tag (glutathione S-transferase affinity tag, free in the ATAD2B sample) (natural protein)
- stoichiometry N: 2
